Tests used:
[1] = biological target: T1, human IL-5 with his-tag (rhIL-5-his) (human, UniProt P05113 20-134); experiment: cell-based or functional assay
T1 sequence: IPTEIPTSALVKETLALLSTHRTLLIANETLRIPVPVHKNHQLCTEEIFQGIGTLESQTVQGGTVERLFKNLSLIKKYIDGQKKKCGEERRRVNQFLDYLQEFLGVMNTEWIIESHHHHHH

[2] = biological target: T1, human IL-5 with his-tag (rhIL-5-his); experiment: cell-based or functional assay; remark: listed apart in the source
[3] = biological target: T1, human IL-5 with his-tag (rhIL-5-his); experiment: Biacore T200, antibody captured on protein A chip, antigen in flow, 1:1 Langmuir
Procedure: The affinity of the humanized IL-5 antibody to be tested with human IL-5 was measured by Biacore T200 (GE) instrument.
(§1) The protein A biosensor chip was used to affinity capture of the molecules to be tested, and then the antigen (prepared in Example 1) flowed through the surface of the chip, and the reaction signal was detected in real time with the Biacore T200 instrument to obtain the binding and dissociation curves. After the dissociation of each experimental cycle was completed, the biosensor chip was washed and regenerated with glycine-hydrochloric acid regeneration solution (pH 1.5). BIA evaluation version 4.1 GE software was used to fit the data against (1:1) Langmuir model, and the affinity value was obtained and shown in Table 14.

[4] = biological target: T1, human IL-5 with his-tag (rhIL-5-his); experiment: FACS blocking: biotin-IL-5 (100 ng/ml) binding to IL-5Rα/β-CHOS cells, antibody diluted
Procedure: Particular method was as follows: CD-CHO comprising […] and […] zeozin was used to culture CHO-S-IL-5Rα and β. During cell culture, the concentration should not exceed 3×10⁶ cells/ml. IL-5Rα/β-CHOS cells in good condition were centrifuged (at 1000 rpm, 5 min), and washed once with 10% FBS in PBS, and the cells were counted, the cell concentration was adjusted to 4×10⁶ cells/ml, and 25 μl was taken out and added into a round-bottom 96-well plate. The antibody to be tested was diluted with PBS solution comprising 10% FBS. The initial concentration was 200 μg/ml, and diluted at 1:10 for 8 gradient dilutions. 25 μl of 100 ng/ml IL-5 labeled by a biotin labeling kit (Tojin Chemical, LK03) was added, and fully mixed with 50 μl of diluted antibody at each concentration, and added into 96-well plate that has been added with cells, and incubated at 4° C. for 1 hour. After the incubation, the sample was centrifuged at 4° C. (400 g, 5 min), and the supernatant was removed, the plated was washed with 200 μl of pre-cooled PBS by centrifugation, repeated for twice; PE-Avidin secondary antibody diluted at 1:1333 was added and incubated in the dark at 4° C. for 40 min, centrifuged at 4° C.

[5] = biological target: IL2 (R&D, 202-IL-010/CF) (UniProt P60568 21-153); experiment: Fortebio biolayer interferometry: antibody captured on Protein A biosensor, 40 nM cytokine injected; signal relative to IL-5 = 100%
Procedure: (§2) IL-5 was one of Th2 cytokines.
(§3) In particular: Protein A Biosensor (PALL Fortebio, 18-5010) was used to capture the antibody, the capture signal was recorded, and then 40 nM each cytokine was injected, the new binding signal was recorded. Finally, the binding signal with IL-5 was defined as 100%.

[6] = biological target: T2, IL4 (R&D, 204-IL-050/CF) (UniProt P05112 25-153); experiment: as above
T2 sequence (looked up): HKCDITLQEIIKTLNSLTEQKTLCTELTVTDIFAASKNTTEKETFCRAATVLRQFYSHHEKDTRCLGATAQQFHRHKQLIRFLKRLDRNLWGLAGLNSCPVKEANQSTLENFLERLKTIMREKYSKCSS
Procedure: as §2, §3

[7] = biological target: T3, IFNgamma (UniProt P01579 24-166, limits assumed); experiment: as above
T3 sequence (looked up): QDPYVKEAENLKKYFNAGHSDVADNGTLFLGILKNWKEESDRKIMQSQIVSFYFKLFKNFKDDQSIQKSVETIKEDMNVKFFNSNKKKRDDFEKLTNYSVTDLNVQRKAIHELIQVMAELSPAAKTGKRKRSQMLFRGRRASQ
Procedure: as §2, §3

[8] = biological target: IL6 (R&D, 7270-IL-025/CF) (UniProt P05231 30-212, limits assumed); experiment: as above
Procedure: as §2, §3

[9] = biological target: IL9 (R&D, 209-IL-010/CF) (UniProt P15248 19-144); experiment: as above
Procedure: as §2, §3

[10] = biological target: IL10 (R&D, 217-IL-025/CF) (UniProt P22301 19-178); experiment: as above
Procedure: as §2, §3

[11] = biological target: IL13 (R&D, 213-ILB-025/CF) (UniProt P35225 35-146); experiment: as above
Procedure: as §2, §3

[12] = biological target: T4, IL25 (R&D, 8134-IL-025/CF) (UniProt Q9H293 33-177); experiment: as above
T4 sequence (looked up): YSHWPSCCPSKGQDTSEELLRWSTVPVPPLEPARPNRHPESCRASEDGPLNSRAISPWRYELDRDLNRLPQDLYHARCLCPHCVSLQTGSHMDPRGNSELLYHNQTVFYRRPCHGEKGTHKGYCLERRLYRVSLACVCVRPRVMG
Procedure: as §2, §3

[13] = biological target: T5, IL31 (R&D, 2824-IL-010/CF) (UniProt Q6EBC2 24-164); experiment: as above
T5 sequence (looked up): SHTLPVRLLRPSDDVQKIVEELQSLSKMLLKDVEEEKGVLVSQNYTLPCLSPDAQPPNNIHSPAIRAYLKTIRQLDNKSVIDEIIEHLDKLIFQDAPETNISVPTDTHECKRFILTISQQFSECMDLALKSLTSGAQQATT
Procedure: as §2, §3

[14] = biological target: T6, IL3 (203-IL-050/CF) (UniProt P08700 20-152); experiment: as above
T6 sequence (looked up): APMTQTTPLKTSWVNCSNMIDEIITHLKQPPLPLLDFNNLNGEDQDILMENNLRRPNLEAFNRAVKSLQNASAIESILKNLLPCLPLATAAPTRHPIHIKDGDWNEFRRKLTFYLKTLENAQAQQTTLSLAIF
Procedure: as §2, §3

[15] = biological target: GMCSF (R&D, 215-GM-010/CF) (UniProt P04141 18-144); experiment: as above
Procedure: as §2, §3

[16] = biological target: T1, human IL-5 with his-tag (rhIL-5-his); experiment: Biacore
Procedure: (§4) The affinity of the murine IL-5 antibody to be tested with human IL-5 was measured by Biacore T200 (GE) instrument.
as §1, with “(recombinant human and cyno IL-5 prepared” for “(prepared”, “13.” for “14.”

[17] = biological target: T1, human IL-5 with his-tag (rhIL-5-his); experiment: Biacore T200, antibody captured on protein A chip, antigen in flow, 1:1 Langmuir; remark: listed apart in the source
Procedure: as §4
as §1, with “(recombinant human and cyno IL-5 prepared” for “(prepared”, “13.” for “14.”

[18] = biological target: T7, cyno IL-5 with his-tag (cyno (paragraph 156 says rhesus), UniProt P48093 20-134 (rhesus entry)); experiment: as above
T7 construct: also called rhesus IL-5 with His-tag; monkey IL-5
T7 sequence: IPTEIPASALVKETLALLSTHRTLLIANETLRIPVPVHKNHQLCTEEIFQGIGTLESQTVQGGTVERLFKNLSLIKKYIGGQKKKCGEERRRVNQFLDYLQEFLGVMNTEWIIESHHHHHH
Procedure: as §4
as §1, with “(recombinant human and cyno IL-5 prepared” for “(prepared”, “13.” for “14.”

[19] = biological target: T1, human IL-5 with his-tag (rhIL-5-his); experiment: competition ELISA: IL-5 coated, biotin-IL-5Rα (10 µg/ml) as competitor, antibody diluted
Procedure: To identify the ability of IL-5 antibody to block IL-5 from binding to the extracellular region of recombinantly expressed IL-5α receptor protein, IL-5 (5 μg/ml in PBS) was coated on an ELISA plate and incubated at 37° C. for 1 hour; the liquid was removed, 200 μl/well of 5% skimmed milk blocking solution diluted with PBS was added, and incubated for 2.5 hours in a 37° C. incubator for blocking. After blocking, the blocking solution was removed and the plate was washed with PBST buffer (pH 7.4 PBS comprising 0.05% Tween-20) for 5 times; 25 μl of 10 μg/ml IL-5Rα (in 1% BSA) labeled by a biotin labeling kit (Tojin Chemical, LK03) was added, and then 25 μl of gradient-diluted antibody was added (the antibody competed with IL-5Rα for the binding with IL-5) and incubated at 37° C. for 1 hour. After the incubation, the reaction solution in the microtiter plate was removed, the plate was washed for 5 times with PBST, added with 50 μl/well of Streptavidin-Peroxidase Polymer (Sigma, 52438-250UG) diluted with sample dilution solution at 1:600 and incubated for 1 hour at 37° C.

Chain of IL10 (R&D, 217-IL-025/CF) (P22301 19-178 limits assumed): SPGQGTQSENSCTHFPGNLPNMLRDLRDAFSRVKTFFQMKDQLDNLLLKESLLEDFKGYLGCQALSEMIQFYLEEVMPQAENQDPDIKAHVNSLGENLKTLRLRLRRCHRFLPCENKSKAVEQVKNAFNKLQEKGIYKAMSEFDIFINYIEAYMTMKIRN
Chain of IL9 (R&D, 209-IL-010/CF) (P15248 19-144 limits assumed): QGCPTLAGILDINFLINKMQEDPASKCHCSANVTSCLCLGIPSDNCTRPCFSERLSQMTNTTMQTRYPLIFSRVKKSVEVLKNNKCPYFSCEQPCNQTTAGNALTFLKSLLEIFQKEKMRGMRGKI
Chain of GMCSF (R&D, 215-GM-010/CF) (P04141 18-144 limits assumed): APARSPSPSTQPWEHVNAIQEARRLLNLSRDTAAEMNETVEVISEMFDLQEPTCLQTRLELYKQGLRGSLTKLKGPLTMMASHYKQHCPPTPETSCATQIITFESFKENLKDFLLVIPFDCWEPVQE
Chain of IL13 (R&D, 213-ILB-025/CF) (P35225 35-146 limits assumed): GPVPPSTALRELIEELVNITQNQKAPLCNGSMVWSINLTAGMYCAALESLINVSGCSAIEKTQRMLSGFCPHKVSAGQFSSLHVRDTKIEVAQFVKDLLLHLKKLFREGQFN
Chain of IL2 (R&D, 202-IL-010/CF) (P60568 21-153 limits assumed): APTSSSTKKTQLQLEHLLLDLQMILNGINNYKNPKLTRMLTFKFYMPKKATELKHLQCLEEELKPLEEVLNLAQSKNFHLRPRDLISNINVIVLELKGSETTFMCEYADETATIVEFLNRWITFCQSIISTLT

B1: h1706-009 (antibody, human IgG1, kappa, V domains shown)
VH: EVQLVESGGGLVQPGGSLRLSCAASGFTFSHYYMAWVRQAPGKGLEWVSSINYEGNSAYYGDSVKGRFTISRDNSKNTLYLQMNSLRAEDTAVYYCATETLRESLDYWGQGTMVTVSS
VL: DIQMTQSPSSVSASVGDRVTITCRASQDIGNYLSWYQQKPGKSPKLMIYSASNLEVGVPSRFSGSGSGTDYTLTISSLQPEDFATYFCLQHKQFPRTFGGGTKVEIKR
Which “IC50 of inhibition of IL-5 induced TF1 cell proliferation” value [1] does the source give for B1 here?
Its value is 0.25 nM.

What about the “IC50 of blocking IL-5 induced eosinophil adhesion” value [2] of the same binder?
The value was 0.0043 µg/mL.

And the Kd [3]?
The Kd was 0.0545 nM.

And the IC50 [4]?
Its IC50 is 0.0247 µg/mL.

Does B1 bind [5]?
Result: no binding (tested: 40 nM)

Does B1 bind [6]?
Result: no binding (tested: 40 nM)

Does B1 bind [7]?
Result: no binding (tested: 40 nM)

Does B1 bind [8]?
Result: no binding (tested: 40 nM)

Does B1 bind [9]?
Result: no binding (tested: 40 nM)

Does B1 bind [10]?
Result: no binding (tested: 40 nM)

Does B1 bind [11]?
Result: no binding (tested: 40 nM)

Does B1 bind [12]?
Result: no binding (tested: 40 nM)

Does B1 bind [13]?
Result: no binding (tested: 40 nM)

Does B1 bind [14]?
Result: no binding (tested: 40 nM)

Does B1 bind [15]?
Result: no binding (tested: 40 nM)

B2: h1705-008 (antibody, human IgG1, kappa, V domains shown)
VH: EVQLVESGGGLVQPGGSLRLSCAASGFTFSHYYMAWVRQAPGKGLEWVTSISYEGDITYYGDSVKGRFTISRDNSKNTLYLQMNSLRAEDTATYYCASQTLRESFDYWGQGTLVTVSS
VL: DIQMTQSPSSVSASVGDRVTITCRASQDIANYLSWYQQKPGKSPKLLIYGTSNLEVGVPSRFSGSRSGTDFTLTISSLQPEDFATYYCLQDKEFPRTFGGGTKVEIKR
notes: IgG1 with M252Y/S254T/T256E, kappa
Which results are given for B2?
IC50 of inhibition of IL-5 induced TF1 cell proliferation [1]: 0.2 nM; IC50 of blocking IL-5 induced eosinophil adhesion [2]: 0.00485 µg/mL; Kd [3]: 0.0342 nM; IC50 [4]: 0.0145 µg/mL; binding result [5]: no binding (tested: 40 nM); binding result [6]: no binding (tested: 40 nM); binding result [7]: no binding (tested: 40 nM); binding result [8]: no binding (tested: 40 nM); binding result [9]: no binding (tested: 40 nM); binding result [10]: no binding (tested: 40 nM); binding result [11]: no binding (tested: 40 nM); binding result [12]: no binding (tested: 40 nM); binding result [13]: no binding (tested: 40 nM); binding result [14]: no binding (tested: 40 nM); binding result [15]: no binding (tested: 40 nM)

B3: mAb1705 (antibody, V domains shown)
VH: EVQLVESGGGLVQPGRSLKLSCTASGFTFSHYYMAWVRQAPKKGLEWVTSISYEGDITYYGDSVKGRFTISRDNAKSTLYLQMNSLRSEDTATYYCASQTLRESFDYWGQGVMVTVSS
VL: DIQMTQSPSSMSVSLGDRVTITCRASQDIANYLSWYQQKIARSPKLVIYGTSNLEVGVPSRFSGSRSGSDYSLTINTLESEDTGIYFCLQDKEFPRTFGGGTRLELK
notes: Murine hybridoma antibody
Which results are given for B3?
Kd [16]: 0.0727 nM; Kd [17]: 0.0727 nM; Kd [18]: 0.205 nM; IC50 [19]: 0.42 µg/mL

— patent publication US20220144937A1 (JIANGSU HENGRUI MEDICINE, published 2022)
